Drawing on paper PMC3245711, this text covers stoichiometry N for one substance.

For this assay, the target named is human KCNJ12 channel (pND-CTFH construct, C-terminal FLAG and octa-histidine tags) (human) (UniProt Q14500). As to the kind of experiment: SEC. Background: Size exclusion chromatography separates by hydrodynamic size, large species first.

human KCNJ12 channel (pND-CTFH construct, C-terminal FLAG and octa-histidine tags), sequence (Q14500 whole entry): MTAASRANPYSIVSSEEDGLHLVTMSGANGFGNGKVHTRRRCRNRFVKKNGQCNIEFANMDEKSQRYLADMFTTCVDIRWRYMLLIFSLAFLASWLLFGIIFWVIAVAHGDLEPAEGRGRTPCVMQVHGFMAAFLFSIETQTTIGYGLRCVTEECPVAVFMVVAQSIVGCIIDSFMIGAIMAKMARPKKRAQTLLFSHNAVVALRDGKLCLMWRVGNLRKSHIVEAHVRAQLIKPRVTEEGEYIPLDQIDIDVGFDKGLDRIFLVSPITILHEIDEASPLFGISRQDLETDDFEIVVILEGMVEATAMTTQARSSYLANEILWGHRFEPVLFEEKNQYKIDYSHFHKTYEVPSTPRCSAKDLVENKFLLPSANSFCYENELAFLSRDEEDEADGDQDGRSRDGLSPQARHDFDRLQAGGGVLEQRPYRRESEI

The substance “human KCNJ12 channel (pND-CTFH construct, C-terminal FLAG and octa-histidine tags) (from UniProt Q14500 1-433) (natural protein)” yielded a stoichiometry N of 4.

Usually stoichiometry N stands for the number of molecules, sites or subunits per partner or assembly.
